Patent publication US11466067B2 (priority 2019, dated 2022)

What was measured:
[1] = test system: circulating cytokines, chemokines, growth factors; format: in vivo, mice
circulating cytokines = experiment: Plasma cytokines by MSD 10-plex, oxazolone dose response; design: species or system mice; conditions: mouse, in vivo
Text: Plasma cytokines were quantified using the V-plex Proinflammatory Panel 1 Mouse Kit. Plasma IL-1Ra was quantitated by sandwich immunoassay using an antibody pair from the Mouse IL-1Ra/IL-1F3 DuoSet ELISA (R&D Systems #DY480), Streptavidin SULFO-TAG Labeled (MSD #R32AD-1), Multi-Array 96 Plate Pack, SECTOR Plate MSD #L15XA-3 and Read Buffer T (4×) (MSD #R92TC-2). Samples were read on the QuickPlex SQ 120 plate reader (Meso Scale Discovery, Rockville, Md.).

[2] = Pan-colonic administration via sigmoidoscopy in NHP: plasma PK/PD; format: in vivo, cynomolgus monkeys
Protocol: (§1) IL-10 delivery construct solution (at concentrations of 0.1, 0.3 and 1.0 mg/mL for the low, mid and high-dose groups respectively) was administered via the rectal route using sigmoidoscopy and a syringe connected to a spray nozzle with a 360° spray pattern. Serial biopsy samples were collected by sigmoidoscopy (pre-dose, 0.25, 0.5, 0.75, 8 and 24-28 hours post dose). Serial plasma samples from 0 min pre-dose to between 24-28 hours post-dose were collected for analysis for the IL-10 delivery construct.

colonic tissue = experiment: Pan-colonic administration in NHP: colonic tissue IL-10, IL-1Ra, pSTAT3, cytokines; format: in vivo, cynomolgus monkeys
Protocol: as §1
Phosphorylation of STAT3 is an early downstream event following IL-10 receptor activation.
(§2) Colonic biopsies at each tissue timepoint were analyzed for local concentration of IL-10 delivery construct, total IL-10, IL-1Ra, soluble cytokines, activation of STAT3 and gene expression following administration of the IL-10 delivery construct. […] In addition, STC1, MTNR1A and VNN2 encode proteins that suppress the […] signaling pathway, a pathway through which key pro-inflammatory cytokines are regulated. […] This is consistent with the ability of IL-10 to suppress these cells' activation or differentiation towards a pro-inflammatory immune phenotype.

colonic genes = experiment: Pan-colonic administration in NHP: colonic gene expression at 8 h; format: in vivo, cynomolgus monkeys
Protocol: as §2

[3] = PK/PD by oral, subcutaneous, intravenous route in NHP; format: in vivo, Macaca fascicularis
Text: For oral administration the IL-10 delivery construct was formulated in size 0 enteric coated capsules. For intravenous or subcutaneous administration it was formulated as a liquid in DS lyo formulation.

[4] = Intraluminal injection in T-cell transfer colitis model, rhIL-10 ELISA; format: in vivo, BALB/c and SCID mice
Protocol: This study was conducted to examine the potential for the carrier protein to transport rhIL-10 from the intestinal lumen into the submucosal region in inflamed intestinal tissue. The T lymphocyte (T cell) transfer model was used as it is a well-established model of induced chronic colitis in mice and presents many of the essential immunological hallmarks observed in IBD patients. Nine BALB/c mice and twelve SCID mice, including nine with the colitis-like model of inflammation, were dosed with 20 μl of test article via intraluminal injection into the distal ileum and the proximal, middle and distal colon.
PBS vehicle was administered to healthy BALB/c mice and both healthy and induced colitis SCID mice (n=3/group). In each group, two mice were terminated 10 minutes after intraluminal injections, and one was terminated 40 minutes after intraluminal injections. Intestinal tissue and serum were collected. Collected tissue was fixed, embedded, sectioned and H&E stained for histological assessment of inflammatory status. ELISA analysis to measure rhIL 10 was performed on lysates prepared from intestinal tissue and serum (FIGS. 106A-106D).

[5] = test system: polarized gut epithelial cells; experiment: In vivo transcytosis across gut epithelium after intraluminal injection; design: species or system Wistar rats; conditions: luminal application, rat jejunum
Protocol: In vivo transcytosis was tested using male Wistar rats. Male Wistar rats were housed 3-5 per cage with a 12/12 h light/dark cycle and were about 225-275 g (approximately 6-8 weeks old) when placed on study. Experiments were conducted during the light phase using a non-recovery protocol that uses continuous isoflurane anesthesia. A 4-5 cm midline abdominal incision that exposed mid-jejunum regions was conducted. Stock solutions at 3.86×10^−5M of delivery construct were prepared in phosphate buffered saline (PBS), with 50 μL (per 250 g rat) being administered by intraluminal injection (ILI) using a 29-gauge needle. The injection site mesentery was then marked with a permanent marker. At study termination, a 3-5 mm region that captured the marked intestine segment was isolated and processed for microscopic assessment. The in vivo experiments were performed in accordance with the U.K. Animals (Scientific Procedures) Act of 1986, the European Communities Council Directive of 1986 (86/609/EEC).

STAT3 phosphorylation = experiment: pSTAT3 and hIL-10 immunofluorescence in intestine 40 min post oral gavage; format: in vivo, rat
Protocol: This observation is consistent with findings in mice that intestinal epithelial cells can express IL-10 receptors at their apical surface under certain conditions associated with development and maintenance of barrier function. […] In order to quantify how test articles affected intestinal IL-10 signal transduction pathways, image analysis was performed: high-throughput image batches were collected, segmented by epithelial versus Lamina propria localization, and then by cellular features.

[6] = Oral gavage 10 mg/kg in mice: hIL-10 and IL-1Ra time course; format: in vivo
Text: The inflammatory actions of IL-1β are modulated by the presence of a specific receptor antagonist known as IL-1Ra. Increased serum IL-1Ra levels can be induced by IL-10, which can occur in the absence of a pro-inflammatory state. With an appreciation of uncertainties associated with how much and when biologically active delivery construct is released from the stomach to reach the small intestine as well as the timing of its uptake and actions within the Lamina propria following oral gavage, we examined IL-1Ra to function in non-inflamed mice as a biomarker of the IL-10 delivery construct's actions.
To test this question, the delivery construct was directly deposited onto the luminal surface of colonic intestinal mucosa in a nonhuman primate model.

[7] = 0.3 mg/mL, 5 h

B1: IL-10 delivery construct: recombinant homodimeric fusion protein: N-terminal methionine, cholix386 domain, polyGlySer spacer, recombinant human IL-10 (protein)
chain: MVEEALNIFDECRSPCSLTPEPGKPIQSKLSIPSDVVLDEGVLYYSMTINDEQNDIKDEDKGESIITIGEFATVRATRHYVNQDAPFGVIHLDITTENGTKTYSYNRKEGEFAINWLVPIGEDSPASIKISVDELDQQRNIIEVPKLYSIDLDNQTLEQWKTQGNVSFSVTRPEHNIAISWPSVSYKAAQKEGSRHKRWAHWHTGLALCWLVPMDAIYNYITQQNCTLGDNWFGGSYETVAGTPKVITVKQGIEQKPVEQRIHFSKGNAMSALAAHRVCGVPLETLARSRKPRDLTDDLSCAYQAQNIVSLFVATRILFSHLDSVFTLNLDEQEPEVAERLSDLRRINENNPGMVTQVLTVARQIYNDYVTHHPGLTPEQTSAGAQAGGGGSGGGGSGGGGSPGQGTQSENSCTHFPGNLPNMLRDLRDAFSRVKTFFQMKDQLDNLLLKESLLEDFKGYLGCQALSEMIQFYLEEVMPQAENQDPDIKAHVNSLGENLKTLRLRLRRCHRFLPCENKSKAVEQVKNAFNKLQEKGIYKAMSEFDIFINYIEAYMTMKIRN
modifications: homodimer
[1]; 0.3 mg/kg
  plasma IL-31: near-base line levels
[1]; 3.0 mg/kg
  plasma TGF-β relative to Vehicle: reduced
[1]; 9.0 mg/kg
  plasma IL-3: near-base line levels
  plasma IL-4: near-base line levels
  production of IL-12 and IL-17: prevented the production
[1]; 3.0 and 9.0 mg/kg
  plasma IL-28: near-base line levels
[1]; highest dose (9.0 mg/kg)
  plasma MCSF: reduced
[1]; mouse, in vivo
  oxazolone-induced changes in LIX, LIF, IP10: mitigated
  oxazolone-induced increase in plasma GCSF/CSF3: attenuated
  plasma IL-13 and IL-15 vs Vehicle: trend towards an IL-10 delivery construct-mediated decrease
Circulating cytokines
  plasma cytokines, MSD 10-plex, vs Vehicle: no significant differences
[2]; 3 mg and 10 mg
  plasma construct concentration relative to total IL-10: 10 fold lower
[2]; 1, 3, 10 mg pan-colonic
  time to detection of total IL-10 in plasma: ≤ 15 min
[2]; 3 and 10 mg
  systemic IL-6: moderately induced
[2]; cynomolgus monkey, in vivo
  systemic IFN-γ, IL-1β, IL-2, IL-8: did not lead to an increase
  time of maximal plasma IL-1Ra: 3 to 4 h
Colonic tissue; 1, 3, 10 mg
  total IL-10 in colonic tissue: dose-dependent increase
Colonic tissue; all doses tested
  colonic tissue pSTAT3/STAT3: Higher ratios
Colonic genes
  MMP1, MMP3 and MMP19 expression: upregulated
  TIMP1 expression: increased
  anti-inflammatory genes (CD163, miR24-2, NOX1, STC1, MTNR1A, VNN2): upregulated
  pro-inflammatory genes (MHCII, PLA2G2D, CCL20, CCL13): decreased
Colonic genes; 12-hour fast prior to treatment
  CYP1A1 expression: downregulated
[3]; oral 1 mg or 5 mgs
  systemic IL-10 after oral vs subcutaneous or intravenous administration: minimal systemic levels of IL-10
[3]; subcutaneous 0.2 mg/kg or intravenous 0.05 mg/kg
  IL-1Ra/IL-10 ratio: minimal effect
[4]; 159 pmoles intraluminal
  rhIL-10 in serum of healthy animals: moderately high
  rhIL-10 in serum of inflamed animals: minimal amounts
[4]; 159 pmoles, 10 minutes
  rhIL-10 levels in inflamed tissue vs rhIL-10 alone: approximately 10 fold higher
  rhIL-10 uptake in normal intestinal tissues vs rhIL-10 alone: two- to five-fold higher
[5]
  earliest time of IL-10 payload transport into the Lamina propria: 1 min
STAT3 phosphorylation
  hIL-10 and pSTAT3 in intestinal tissue: extensive amounts of hIL-10 and a large number of cells that were positive for pSTAT3 within the Lamina propria
[6]
  hIL-10 in small intestinal lysates relative to colonic lysates: ~10 fold higher
[6]; 4 h
  serum IL-1Ra: significantly increased
20 mg/mL, any condition tested
  aggregation during freeze/thaw or at 1 week at 4 °C: did not show any significant increases in aggregation
Initial lyophilization feasibility study
  stability with respect to aggregation: more stable at pH 7.5 with sucrose and glycine
[7]
  solution stability in PBS at 37 °C: significant degradation
  solution stability in PBS at RT: stable
